Measured values from US20150150156, “METHODS AND COMPOSITIONS FOR REDUCING GENE EXPRESSION IN PLANTS” (The Regents of the University of California, published 2015).

Tests used:
[1] = target: T1, SUVR5 zinc finger domain (aa 720-866) (Arabidopsis thaliana, UniProt O64827 SEQ:1-147); experiment: EMSA; specificity control; specificity stated as confirmed by EMSA, gel only in figure; conditions: tags: GST fusion (pDEST15)
T1 sequence: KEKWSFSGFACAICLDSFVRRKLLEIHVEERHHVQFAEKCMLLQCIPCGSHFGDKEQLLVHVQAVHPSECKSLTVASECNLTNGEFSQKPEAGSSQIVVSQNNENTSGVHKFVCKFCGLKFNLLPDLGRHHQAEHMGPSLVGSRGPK

[2] = target: T1, SUVR5 zinc finger domain (aa 720-866); experiment: EMSA; 100, 250, 500 ng protein; 12% glycerol, 20 mM Tris-HCl pH 7.5, 50 mM KCl, 1 mM MgCl2, 1 mM DTT; conditions: tags: GST fusion (pDEST15)

B1: unspecific probe (dsDNA)
DNA 1: ACCAAGCAACACACCCCGT
DNA 2: ACGGGGTGTGTTGCTTGGT
[1]
  binding result: no binding

B2: specific probe (dsDNA)
DNA 1: GTAGAATACTAGTTGATAAC
DNA 2: GTTATCAACTAGTATTCTAC
[2]
  binding result: binds
